The sequences below were run on Escherichia coli TOP10 (assay: shrunken log2 fold change of peptide-encoding DNA abundance (4.5 h post-induction vs induction); higher = less antimicrobial activity (less host growth inhibition)). Details: time post-induction: 4.5 h; library: site-saturation at positions 5, 18, 19, 20.
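Also: peptides expressed intracellularly from a pBAD plasmid library in pooled LB shake-flask culture, induced with 0.3% L-arabinose, DNA abundance read by NGS, three biological replicates, DESeq2 with apeglm shrinkage.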

Row | Sequence | shrunken log2 fold change
1 | RRIRWRPPRLPRPRPRPMKKPRP | -0.0863
2 | RRIRWRPPRLPRPRPRPMLCPRP | 0.216
3 | RRIRWRPPRLPRPRPRPMMHPRP | 0.159
4 | RRIRWRPPRLPRPRPRPMMQPRP | 0.195
5 | RRIRWRPPRLPRPRPRPMMTPRP | 0.0544
6 | RRIRWRPPRLPRPRPRPMNIPRP | -0.541
7 | RRIRWRPPRLPRPRPRPMNPPRP | -0.153
8 | RRIRWRPPRLPRPRPRPMPWPRP | 0.0161
9 | RRIRWRPPRLPRPRPRPMQCPRP | 0.0434
10 | RRIRWRPPRLPRPRPRPMQLPRP | 0.12
11 | RRIRWRPPRLPRPRPRPMRPPRP | 1.15
12 | RRIRWRPPRLPRPRPRPMRTPRP | 0.273
13 | RRIRWRPPRLPRPRPRPMSGPRP | 0.118
14 | RRIRWRPPRLPRPRPRPMTPPRP | 0.764
15 | RRIRWRPPRLPRPRPRPMTRPRP | 0.0972
16 | RRIRWRPPRLPRPRPRPMVPPRP | -0.0589
17 | RRIRWRPPRLPRPRPRPMWYPRP | -0.0539
18 | RRIRWRPPRLPRPRPRPMYDPRP | -0.158
19 | RRIRWRPPRLPRPRPRPMYHPRP | -0.712
20 | RRIRWRPPRLPRPRPRPMYIPRP | -0.144
21 | RRIRWRPPRLPRPRPRPMYMPRP | 0.0903
22 | RRIRWRPPRLPRPRPRPNAHPRP | 0.0415

Row | Sequence | shrunken log2 fold change
23 | RRIRWRPPRLPRPRPRPNCEPRP | 0.0915
24 | RRIRWRPPRLPRPRPRPNDHPRP | -0.0566
25 | RRIRWRPPRLPRPRPRPNESPRP | -0.0337
26 | RRIRWRPPRLPRPRPRPNEWPRP | -0.0242
27 | RRIRWRPPRLPRPRPRPNFNPRP | -0.198
28 | RRIRWRPPRLPRPRPRPNGLPRP | 0.145
29 | RRIRWRPPRLPRPRPRPNIFPRP | 0.0551
30 | RRIRWRPPRLPRPRPRPNIWPRP | -0.153
31 | RRIRWRPPRLPRPRPRPNMSPRP | -0.00987
32 | RRIRWRPPRLPRPRPRPNNAPRP | -0.295
33 | RRIRWRPPRLPRPRPRPNPDPRP | 0.167
34 | RRIRWRPPRLPRPRPRPNPKPRP | 0.0369
35 | RRIRWRPPRLPRPRPRPNPNPRP | 0.055
36 | RRIRWRPPRLPRPRPRPNQKPRP | -0.0347
37 | RRIRWRPPRLPRPRPRPNQSPRP | -0.108
38 | RRIRWRPPRLPRPRPRPNSAPRP | 0.104
39 | RRIRWRPPRLPRPRPRPNSKPRP | -0.218
40 | RRIRWRPPRLPRPRPRPNTAPRP | 0.055
41 | RRIRWRPPRLPRPRPRPNTIPRP | -0.492
42 | RRIRWRPPRLPRPRPRPNTRPRP | 0.15
43 | RRIRWRPPRLPRPRPRPNVSPRP | -0.0556
44 | RRIRWRPPRLPRPRPRPNWPPRP | 0.214

Row | Sequence | shrunken log2 fold change
45 | RRIRWRPPRLPRPRPRPNWQPRP | -0.0101
46 | RRIRWRPPRLPRPRPRPPADPRP | 0.846
47 | RRIRWRPPRLPRPRPRPPAGPRP | 0.83
48 | RRIRWRPPRLPRPRPRPPCSPRP | -0.00461
49 | RRIRWRPPRLPRPRPRPPDNPRP | 0.318
50 | RRIRWRPPRLPRPRPRPPDRPRP | 0.166
51 | RRIRWRPPRLPRPRPRPPEKPRP | 0.269
52 | RRIRWRPPRLPRPRPRPPHLPRP | 0.0195
53 | RRIRWRPPRLPRPRPRPPKHPRP | 0.272
54 | RRIRWRPPRLPRPRPRPPLRPRP | 0.418
55 | RRIRWRPPRLPRPRPRPPMHPRP | 0.429
56 | RRIRWRPPRLPRPRPRPPMTPRP | 0.257
57 | RRIRWRPPRLPRPRPRPPNGPRP | 0.034
58 | RRIRWRPPRLPRPRPRPPNQPRP | 0.363
59 | RRIRWRPPRLPRPRPRPPPLPRP | 1.32
60 | RRIRWRPPRLPRPRPRPPPRPRP | 1.14
61 | RRIRWRPPRLPRPRPRPPQEPRP | 0.567
62 | RRIRWRPPRLPRPRPRPPQLPRP | 0.462
63 | RRIRWRPPRLPRPRPRPPQPPRP | 0.66
64 | RRIRWRPPRLPRPRPRPPQWPRP | 0.179
65 | RRIRWRPPRLPRPRPRPPRYPRP | 0.374
66 | RRIRWRPPRLPRPRPRPPSYPRP | -0.116

Row | Sequence | shrunken log2 fold change
67 | RRIRWRPPRLPRPRPRPPTKPRP | 4.13
68 | RRIRWRPPRLPRPRPRPPVFPRP | 0.384
69 | RRIRWRPPRLPRPRPRPPYLPRP | -0.184
70 | RRIRWRPPRLPRPRPRPQALPRP | 0.113
71 | RRIRWRPPRLPRPRPRPQDSPRP | 0.0627
72 | RRIRWRPPRLPRPRPRPQECPRP | -0.0185
73 | RRIRWRPPRLPRPRPRPQFIPRP | -0.211
74 | RRIRWRPPRLPRPRPRPQGKPRP | 0.127
75 | RRIRWRPPRLPRPRPRPQHWPRP | 0.0364
76 | RRIRWRPPRLPRPRPRPQKCPRP | -0.382
77 | RRIRWRPPRLPRPRPRPQKIPRP | -0.178
78 | RRIRWRPPRLPRPRPRPQLCPRP | 0.078
79 | RRIRWRPPRLPRPRPRPQLTPRP | 0.325
80 | RRIRWRPPRLPRPRPRPQLVPRP | 0.144
81 | RRIRWRPPRLPRPRPRPQPVPRP | 0.135
82 | RRIRWRPPRLPRPRPRPQQTPRP | 0.103
83 | RRIRWRPPRLPRPRPRPQRFPRP | 0.206
84 | RRIRWRPPRLPRPRPRPQRGPRP | 0.115
85 | RRIRWRPPRLPRPRPRPQSTPRP | 0.02
86 | RRIRWRPPRLPRPRPRPQWGPRP | 0.293
87 | RRIRWRPPRLPRPRPRPQWPPRP | 0.158
88 | RRIRWRPPRLPRPRPRPQYNPRP | -0.554

Row | Sequence | shrunken log2 fold change
89 | RRIRWRPPRLPRPRPRPQYPPRP | -0.139
90 | RRIRWRPPRLPRPRPRPQYQPRP | -0.268
91 | RRIRWRPPRLPRPRPRPRAAPRP | 1.04
92 | RRIRWRPPRLPRPRPRPRCLPRP | 0.164
93 | RRIRWRPPRLPRPRPRPRCTPRP | 0.243
94 | RRIRWRPPRLPRPRPRPRFQPRP | 0.199
95 | RRIRWRPPRLPRPRPRPRGDPRP | 1.03
96 | RRIRWRPPRLPRPRPRPRHCPRP | 0.0392
97 | RRIRWRPPRLPRPRPRPRIVPRP | 0.0526
98 | RRIRWRPPRLPRPRPRPRKAPRP | 0.285
99 | RRIRWRPPRLPRPRPRPRKDPRP | -0.0246
100 | RRIRWRPPRLPRPRPRPRKLPRP | 0.133
101 | RRIRWRPPRLPRPRPRPRLFPRP | 0.432
102 | RRIRWRPPRLPRPRPRPRLHPRP | 0.191
103 | RRIRWRPPRLPRPRPRPRMYPRP | -0.196
104 | RRIRWRPPRLPRPRPRPRNCPRP | -0.00862
105 | RRIRWRPPRLPRPRPRPRNEPRP | 1.32
106 | RRIRWRPPRLPRPRPRPRNIPRP | 0.00817
107 | RRIRWRPPRLPRPRPRPRNLPRP | 0.0777
108 | RRIRWRPPRLPRPRPRPRNNPRP | -0.162
109 | RRIRWRPPRLPRPRPRPRNPPRP | 0.113

From the supplement of paper PMC9112550, “Optimization of the antimicrobial peptide Bac7 by deep mutational scanning” (BMC Biology, 2022)
